# T1: human MMP-1 (human, UniProt P03956 100-269, limits assumed)
# T1 sequence (looked up): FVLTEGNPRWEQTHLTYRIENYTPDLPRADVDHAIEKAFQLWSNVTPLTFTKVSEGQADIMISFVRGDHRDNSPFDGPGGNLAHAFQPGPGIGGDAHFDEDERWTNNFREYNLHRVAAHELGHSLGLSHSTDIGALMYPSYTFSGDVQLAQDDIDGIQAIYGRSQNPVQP
# T2: human MMP-7 (human, UniProt P09237 95-267)
# T2 sequence (looked up): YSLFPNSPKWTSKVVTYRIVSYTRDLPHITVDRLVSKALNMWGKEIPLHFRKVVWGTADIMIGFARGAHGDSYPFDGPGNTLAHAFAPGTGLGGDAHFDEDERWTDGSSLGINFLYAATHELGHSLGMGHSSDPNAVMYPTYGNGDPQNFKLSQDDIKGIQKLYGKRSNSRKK
# B1: 539A-M0166-F10 (format not stated: Fab or hIgG-1) (antibody, V domains shown)
# VH: EVQLLESGGGLVQPGGSLRLSCAASGFTFSPYLMNWVRQAPGKGLEWVSSIYSSGGGTGYADSVKGRFTISRDNSKNTLYLQMNSLRAEDTAVYYCARIYHSSSGPFYGMDVWGQGTTVTVSS
# VL: AQSELTQPPSASAAPGQRVTISCSGSSSNIGSNTVTWYQKLPGTAPKLLIYNNYERPSGVPARFSGSKSGTSASLAISGLQSEDEADYYCATWDDSLIANYVFGSGTKVTVLG
# B2: 539A-M0166-F10 Fab (Fab, V domains shown)
# VH: B1 VH
# VL: B1 VL
# B3: 539A-M0166-F10 hIgG1 (antibody, V domains shown)
# VH: B1 VH
# VL: QSELTQPPSASAAPGQRVTISCSGSSSNIGSNTVTWYQKLPGTAPKLLIYNNYERPSGVPARFSGSKSGTSASLAISGLQSEDEADYYCATWDDSLIANYVFGSGTKVTVLG
# notes: Human IgG1; also called DL15
# How the values were obtained:
# human MMP-9 = human MMP-9 (human, UniProt P14780 107-707, limits assumed); assay: cell-based or functional assay
# human MMP-9, sequence (P14780 107-707 limits assumed): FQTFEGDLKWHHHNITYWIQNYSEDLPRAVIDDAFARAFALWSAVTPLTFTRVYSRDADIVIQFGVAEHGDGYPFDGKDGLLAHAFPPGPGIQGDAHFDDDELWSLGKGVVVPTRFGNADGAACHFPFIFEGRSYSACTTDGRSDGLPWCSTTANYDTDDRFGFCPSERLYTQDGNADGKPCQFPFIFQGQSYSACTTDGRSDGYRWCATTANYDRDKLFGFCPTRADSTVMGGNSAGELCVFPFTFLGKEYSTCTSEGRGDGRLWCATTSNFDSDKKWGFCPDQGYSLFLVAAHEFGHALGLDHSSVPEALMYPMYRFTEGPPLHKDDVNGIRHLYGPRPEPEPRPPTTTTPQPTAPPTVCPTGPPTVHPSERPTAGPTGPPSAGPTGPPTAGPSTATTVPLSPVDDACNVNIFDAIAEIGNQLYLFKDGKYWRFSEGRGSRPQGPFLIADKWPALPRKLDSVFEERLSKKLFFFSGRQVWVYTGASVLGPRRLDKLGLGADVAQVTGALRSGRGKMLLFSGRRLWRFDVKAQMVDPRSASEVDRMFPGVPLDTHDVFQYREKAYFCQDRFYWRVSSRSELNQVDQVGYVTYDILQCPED
# [1] = target: T3, Human MMP-9 catalytic domain (BIOMOL, SE-244) (human, UniProt P14780 107-445, limits assumed); assay: cell-based or functional assay
# T3 sequence (P14780 107-445 limits assumed): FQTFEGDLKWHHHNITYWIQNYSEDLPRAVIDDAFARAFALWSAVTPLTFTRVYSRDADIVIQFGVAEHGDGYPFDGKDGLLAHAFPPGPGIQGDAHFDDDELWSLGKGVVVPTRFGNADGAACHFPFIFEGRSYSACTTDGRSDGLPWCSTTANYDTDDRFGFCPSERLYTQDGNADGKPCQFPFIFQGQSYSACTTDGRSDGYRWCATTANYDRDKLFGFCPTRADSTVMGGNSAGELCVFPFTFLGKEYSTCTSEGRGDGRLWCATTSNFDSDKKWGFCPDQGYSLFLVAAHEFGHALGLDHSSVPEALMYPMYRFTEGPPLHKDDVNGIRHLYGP
# human MMP-2 = human MMP-2 (human, UniProt P08253 110-452, limits assumed); assay: cell-based or functional assay
# human MMP-2, sequence (P08253 110-452 limits assumed): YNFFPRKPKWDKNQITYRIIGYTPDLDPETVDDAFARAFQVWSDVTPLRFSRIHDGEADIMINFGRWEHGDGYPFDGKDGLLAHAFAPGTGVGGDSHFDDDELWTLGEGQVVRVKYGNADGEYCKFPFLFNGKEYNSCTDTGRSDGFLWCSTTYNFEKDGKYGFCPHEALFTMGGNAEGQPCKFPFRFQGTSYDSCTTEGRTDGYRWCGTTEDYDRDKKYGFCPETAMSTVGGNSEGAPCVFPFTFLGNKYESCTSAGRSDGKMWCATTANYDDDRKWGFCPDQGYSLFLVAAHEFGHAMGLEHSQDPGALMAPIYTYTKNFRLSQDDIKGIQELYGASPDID
# human MMP-1 = target: T1, human MMP-1; assay: cell-based or functional assay
# human MMP-10 = human MMP-10 (human, UniProt P09238 99-271, limits assumed); assay: cell-based or functional assay
# human MMP-10, sequence (P09238 99-271 limits assumed): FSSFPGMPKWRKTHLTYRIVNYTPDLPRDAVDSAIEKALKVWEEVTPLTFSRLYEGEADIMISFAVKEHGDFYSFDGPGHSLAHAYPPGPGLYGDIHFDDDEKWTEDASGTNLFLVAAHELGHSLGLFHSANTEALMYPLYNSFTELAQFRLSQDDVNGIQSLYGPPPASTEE
# human MMP-12 = human MMP-12 (human, UniProt P39900 106-268, limits assumed); assay: cell-based or functional assay
# human MMP-12, sequence (P39900 106-268 limits assumed): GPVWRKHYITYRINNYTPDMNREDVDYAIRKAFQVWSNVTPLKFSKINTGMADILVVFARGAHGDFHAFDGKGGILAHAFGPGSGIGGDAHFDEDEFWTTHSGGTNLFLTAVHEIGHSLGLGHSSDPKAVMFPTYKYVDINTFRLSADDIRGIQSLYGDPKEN
# human MMP-7 = target: T2, human MMP-7; assay: cell-based or functional assay
# mouse MMP-2 = mouse MMP-2 (mouse, UniProt P33434 30-662, limits assumed); assay: cell-based or functional assay
# mouse MMP-2, sequence (P33434 30-662 limits assumed): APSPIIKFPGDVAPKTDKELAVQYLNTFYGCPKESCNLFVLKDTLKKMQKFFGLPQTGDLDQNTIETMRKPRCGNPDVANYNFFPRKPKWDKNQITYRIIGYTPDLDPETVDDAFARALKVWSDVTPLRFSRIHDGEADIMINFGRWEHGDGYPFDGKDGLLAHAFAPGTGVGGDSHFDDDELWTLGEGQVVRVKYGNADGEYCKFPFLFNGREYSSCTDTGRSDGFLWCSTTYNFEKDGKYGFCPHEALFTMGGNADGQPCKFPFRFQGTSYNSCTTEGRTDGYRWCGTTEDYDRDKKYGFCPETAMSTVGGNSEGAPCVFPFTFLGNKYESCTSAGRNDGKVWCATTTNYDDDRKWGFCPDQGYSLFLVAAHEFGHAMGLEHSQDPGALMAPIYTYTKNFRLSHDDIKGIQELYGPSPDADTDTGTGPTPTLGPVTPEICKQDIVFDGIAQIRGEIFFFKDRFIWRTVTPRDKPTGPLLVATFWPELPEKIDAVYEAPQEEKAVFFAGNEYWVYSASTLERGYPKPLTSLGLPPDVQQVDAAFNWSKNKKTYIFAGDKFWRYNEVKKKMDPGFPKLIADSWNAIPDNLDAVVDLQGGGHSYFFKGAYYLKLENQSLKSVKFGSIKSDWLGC
# mouse MMP-9 = mouse MMP-9 (mouse, UniProt P41245 20-730, limits assumed); assay: cell-based or functional assay
# mouse MMP-9, sequence (P41245 20-730 limits assumed): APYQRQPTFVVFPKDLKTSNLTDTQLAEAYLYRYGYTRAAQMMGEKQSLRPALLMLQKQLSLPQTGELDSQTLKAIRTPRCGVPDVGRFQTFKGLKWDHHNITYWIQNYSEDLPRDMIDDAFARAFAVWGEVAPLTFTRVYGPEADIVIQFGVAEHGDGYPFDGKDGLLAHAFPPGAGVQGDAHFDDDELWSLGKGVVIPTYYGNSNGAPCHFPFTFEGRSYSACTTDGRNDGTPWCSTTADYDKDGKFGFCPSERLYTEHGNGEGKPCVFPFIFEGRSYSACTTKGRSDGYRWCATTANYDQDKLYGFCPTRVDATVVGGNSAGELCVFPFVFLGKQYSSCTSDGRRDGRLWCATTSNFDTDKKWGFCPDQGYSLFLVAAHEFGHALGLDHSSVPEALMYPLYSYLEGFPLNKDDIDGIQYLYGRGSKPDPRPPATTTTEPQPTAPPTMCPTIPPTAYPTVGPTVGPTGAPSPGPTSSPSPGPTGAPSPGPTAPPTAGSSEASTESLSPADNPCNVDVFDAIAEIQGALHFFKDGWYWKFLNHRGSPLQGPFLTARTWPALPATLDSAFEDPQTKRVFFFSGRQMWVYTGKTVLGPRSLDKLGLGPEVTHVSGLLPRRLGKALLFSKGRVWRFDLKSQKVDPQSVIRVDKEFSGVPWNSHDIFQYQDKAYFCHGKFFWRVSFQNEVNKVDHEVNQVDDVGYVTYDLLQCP
# human MMP-14 = human MMP-14 (human, UniProt P50281 112-284, limits assumed); assay: cell-based or functional assay
# human MMP-13 = human MMP-13 (human, UniProt P45452 104-274); assay: cell-based or functional assay
# human MMP-8 = human MMP-8 (human, UniProt P22894 100-262, limits assumed); assay: cell-based or functional assay
# human MMP-8, sequence (P22894 100-262 limits assumed): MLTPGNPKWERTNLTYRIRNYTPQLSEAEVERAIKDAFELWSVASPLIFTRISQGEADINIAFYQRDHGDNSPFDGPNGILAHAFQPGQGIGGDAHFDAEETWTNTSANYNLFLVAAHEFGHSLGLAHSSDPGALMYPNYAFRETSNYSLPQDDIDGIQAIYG
# [2] = target: T3, Human MMP-9 catalytic domain (BIOMOL, …); assay: cell-based or functional assay; remark: listed apart in the source
# human MMP-3 = human MMP-3 (human, UniProt P08254 100-272, limits assumed); assay: cell-based or functional assay
# human MMP-3, sequence (P08254 100-272 limits assumed): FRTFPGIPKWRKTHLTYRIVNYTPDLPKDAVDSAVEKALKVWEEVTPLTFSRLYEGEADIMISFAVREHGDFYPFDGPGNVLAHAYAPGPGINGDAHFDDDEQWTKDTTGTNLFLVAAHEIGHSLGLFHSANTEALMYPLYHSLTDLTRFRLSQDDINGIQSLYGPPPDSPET
# [3] = target: T3, Human MMP-9 catalytic domain (BIOMOL, …); assay: cell-based or functional assay; remark: listed apart in the source
# [4] = target: T3, Human MMP-9 catalytic domain (BIOMOL, …); assay: cell-based or functional assay; remark: listed apart in the source
# [5] = target: T3, Human MMP-9 catalytic domain (BIOMOL, …); assay: enzyme inhibition, competitive model; intercept of IC50 against substrate concentration (3 to 15 µM), 0.6 nM enzyme
# Method: Experiments were performed to characterize the interaction of the M0166-F10 hIgG1 with human MMP-9. The Ki was measured and the inhibition mechanism was determined.
# Materials: [0427] Substrate: Mca-KPLGL-Dap(Dnp)-AR-NH₂ (M-2350) from BACHEM (521575). A 10 mM stock solution was prepared in DMSO. [0428] Human MMP-9 catalytic domain (BIOMOL, SE-244), stock solution at 0.24 mg/ml. [0429] M0166-F10 hIgG1: 2551-095. Dialysed against TCN. Stock solution at 0.226 mg/ml. [0430] Experiments were performed in TCNB: 50 mM Tris/HCl, 10 mM CaCl₂, 150 mM NaCl, 0.05% Brij 35, pH 7.5. [0431] 96-well black plates from Perkin Elmer (6005270). [0432] Spectramax M2e to measure fluorescence emission of the substrate upon hydrolysis (temperature control set at 30° C.; λexc=328 nm and λₑₘ=393 nm).
# Procedure: [0434] 90 μl of the enzyme (final concentration=0.6 nM) was preincubated with 90 μl of various concentrations (0-100 nM final) of M0166-F10 for 1.5 h at 30° C. 20 μl the substrate was then added to a final concentration ranging from 3 to 15 μM, and initial rates were recorded. [0435] Each data point was measured in triplicate, and initial rates were averaged. […] Averaged initial rates were plotted against the M0166-F10 concentration for each substrate concentration, and IC₅₀'s were calculated using the following equation: […]
binder,measurement,setting,value
B1,"IC50, inhibition of MMP-9 activity",human MMP-9,1.8 nM
B2,"IC50 on human MMP-9 activity (fluorogenic substrate, 10 µM)",[1],~33 nM
same,"residual enzyme activity in the presence of 1 µM antibody, 10 µM fluorogenic peptide substrate (unit not given)",human MMP-2,126
same,"residual enzyme activity in the presence of 1 µM antibody, 10 µM fluorogenic peptide substrate (unit not given)",human MMP-1,104
same,"residual enzyme activity in the presence of 1 µM antibody, 10 µM fluorogenic peptide substrate (unit not given)",human MMP-10,102
same,"residual enzyme activity in the presence of 1 µM antibody, 10 µM fluorogenic peptide substrate (unit not given)",human MMP-12,90
same,"residual enzyme activity in the presence of 1 µM antibody, 10 µM fluorogenic peptide substrate (unit not given)",human MMP-7,93
same,"residual enzyme activity in the presence of 1 µM antibody, 10 µM fluorogenic peptide substrate (unit not given)",mouse MMP-2,113
same,"residual enzyme activity in the presence of 1 µM antibody, 10 µM fluorogenic peptide substrate (unit not given)",mouse MMP-9,94
same,"residual enzyme activity in the presence of 1 µM antibody, 10 µM fluorogenic peptide substrate (unit not given)",human MMP-14,115
same,"residual enzyme activity in the presence of 1 µM antibody, 10 µM fluorogenic peptide substrate (unit not given)",human MMP-13,106
same,"residual enzyme activity in the presence of 1 µM antibody, 10 µM fluorogenic peptide substrate (unit not given)",human MMP-8,100
same,"residual enzyme activity in the presence of 1 µM antibody, 10 µM fluorogenic peptide substrate (unit not given)",[2],8
same,"residual enzyme activity in the presence of 1 µM antibody, 10 µM fluorogenic peptide substrate (unit not given)",human MMP-3,82
B3,a (intercept) of the linear fit of IC50 (nM) against M-2350 substrate concentration (µM); unit taken from the IC50 axis,[3],0.586 nM
same,b (gradient) of the linear fit of IC50 (nM) against M-2350 substrate concentration (µM); unit not given,[3],0.39
same,"IC50 (inhibition of enzyme activity, 3 µM substrate M-2350, 0.6 nM enzyme); unit from the concentration axis [panel 3µM]",[4],2.16 nM
same,"IC50 (inhibition of enzyme activity, 5 µM substrate M-2350, 0.6 nM enzyme); unit from the concentration axis [panel 5µM]",[4],2.45 nM
same,"IC50 (inhibition of enzyme activity, 7.5 µM substrate M-2350, 0.6 nM enzyme); unit from the concentration axis [panel 7.5µM]",[4],4.22 nM
same,"IC50 (inhibition of enzyme activity, 10 µM substrate M-2350, 0.6 nM enzyme); unit from the concentration axis [panel 10µM]",[4],3.99 nM
same,"IC50 (inhibition of enzyme activity, 12.5 µM substrate M-2350, 0.6 nM enzyme) [panel 12.5µM]",[4],5.35 nM
same,"IC50 (inhibition of enzyme activity, 15 µM substrate M-2350, 0.6 nM enzyme); unit from the concentration axis [panel 15µM]",[4],7.06 nM
same,"IC50 on human MMP-9 activity (fluorogenic substrate, 10 µM)",[1],4.3 nM
same,"residual enzyme activity in the presence of 1 µM antibody, 10 µM fluorogenic peptide substrate (unit not given)",[2],4
same,Ki,[5],0.3 nM
